Source: the supplement of paper PMC10567573

B1: STX11 (parent)
chain: FQRAMHDYNQAEMKQRDNCKIRIQ
B2: CDC14A (parent)
chain: LWVQGDIFRSKLKNRPSSEGSINK

Variants of: B1
Assay: protein stability index of a GFP-peptide fusion (GPS, HEK-293T) (PSI 1-6); higher = more stable
Conditions: c terminus: a fixed tail appended
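Note: lentivirally expressed fusions sorted by FACS into six bins by GFP to DsRed ratio, PSI derived from sequencing read proportions per bin multiplied by bin number.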

Protein stability index: each site, then its substitutions
Y8: C 2.62; D 3.4; E 3.47; F 2.52; G 3.39; H 3; I 3.08; K 3.58; L 2.39; M 3.15; N 3.83; P 3.32; Q 3.83; R 2.61; S 3.45; T 3.62; V 2.89; W 2.08
N9: A 2.47; C 2.15; D 2.84; E 2.94; F 1.83; G 2.33; H 2.93; I 2.25; K 2.29; L 2.74; M 1.7; P 3.11; Q 2.64; R 4.08; S 2.91; T 2.79; V 2; W 1.74; Y 1.74
Q10: A 3.1; C 1.87; D 2.59; E 2.74; F 1.81; G 2.45; H 2.16; I 2.31; K 2.73; L 2.36; M 1.92; N 2.63; P 2.01; R 2.06; S 3.35; T 2.39; V 2.67; W 1.73; Y 2.17
A11: C 2.29; D 3.02; E 3.22; F 2.46; G 3.09; H 2.58; I 1.68; K 2.6; L 3.27; M 2.02; N 2.44; P 3.19; Q 2.42; R 2.79; S 2.75; T 2.43; V 2.79; W 2.49; Y 3.24
E12: A 2.32; C 2.11; D 2.5; F 2.29; G 2.05; H 2.14; I 2.44; K 2.31; L 2.42; M 1.6; N 2.29; P 2.02; Q 2.31; R 2.83; S 2.23; T 2.62; V 2.52; W 2.39; Y 1.67
M13: A 2.95; C 2.49; D 3.71; E 2.49; F 2.5; G 3.49; H 2.65; I 2.85; K 1.98; L 2.35; N 3.5; P 3.11; Q 2.62; R 2.1; S 3.03; T 2.79; V 2.52; W 2.5; Y 2.62
K14: A 2.98; C 3.08; D 3.08; E 3.93; F 2.91; G 3.11; H 2.57; I 2.3; L 2.44; M 2.82; N 2.94; P 2.85; Q 2.4; R 2.18; S 2.48; T 2.69; V 2.48; W 2.86; Y 2.14
Q15: A 2.23; C 2.29; D 2.74; E 3.2; F 2.01; G 2.45; H 2.57; I 2.17; K 2.15; L 2.32; M 1.86; N 2.86; P 2.85; R 2.64; S 2.71; T 3.18; V 2.56; W 3.09; Y 3.08
R16: A 3.04; C 2.48; D 3.28; E 3.04; F 2.28; G 3.37; H 2.73; I 2.34; K 2.81; L 3.07; M 2.46; N 2.7; P 2.87; Q 3.29; S 2.41; T 2.67; V 2.63; W 2.43; Y 2.65
D17: A 2.28; C 2.09; E 2.81; F 1.16; G 2.36; H 2.15; I 1.8; K 1.98; L 2.1; M 2; N 2.28; P 2.97; Q 2.63; R 1.82; S 1.78; T 1.98; V 2.73; W 1.68; Y 1.89
N18: A 2.53; C 2.3; D 2.88; E 3.11; F 2.36; G 2.41; H 2.02; I 2.41; K 2.56; L 2.48; M 2.59; P 2.91; Q 2.5; R 2.44; S 2.48; T 3.21; V 2.17; W 2.17; Y 2.17
C19: A 2.98; D 2.85; E 3.06; F 1.85; G 3.06; H 4.44; I 2.55; K 3.38; L 2.54; M 2.85; N 3.7; P 3.71; Q 2.77; R 2.59; S 3.27; T 3.04; V 2.96; W 2.35; Y 2.61
K20: A 2.32; C 2.23; D 3.11; E 2.74; F 1.69; G 2.35; H 3.21; I 1.3; L 3.26; M 2.46; N 2.83; P 2.37; Q 2.75; R 2.37; S 3.15; T 2.47; V 2.14; W 1.6; Y 1.41
I21: A 3.01; C 2.36; D 3.86; E 2.92; F 2.34; G 3.08; H 2.76; K 2.68; L 2.29; M 3.12; N 2.98; P 2.9; Q 3.04; R 3.56; S 3.5; T 3.17; V 1.92; W 3.17; Y 2.93
R22: A 2.61; C 2.37; D 3.13; E 2.67; F 2.04; G 2.57; H 2.49; I 2.58; K 2.42; L 2.53; M 2.8; N 2.61; P 3.02; Q 2.9; S 3.44; T 2.54; V 2.6; W 1.74; Y 2.59
I23: A 3.51; C 2.9; D 3.38; E 3.53; F 2.5; G 3.25; H 2.8; K 2.93; L 2.87; M 2.99; N 3.78; P 3.24; Q 3.52; R 2.74; S 2.66; T 3.19; V 2.85; W 2.83; Y 2.98
Q24: A 2.62; C 2.3; D 2.81; E 3.17; F 2.17; G 2.75; H 2.74; I 2.36; K 2.87; L 3.09; M 2.69; N 2.95; P 2.83; R 2.33; S 2.27; T 2.77; V 2.42; W 1.6; Y 2.05

Variants of: B2
Assay: as above
Conditions: c terminus: a fixed tail appended

Protein stability index: each site, then its substitutions
L1: A 3.37; C 3.69; D 4.57; E 4.43; F 1.75; G 3.03; H 3.37; I 2.17; K 3.49; M 2.79; N 4.3; P 3.75
